In article PMC3369926, “TRAM Is Involved in IL-18 Signaling and Functions as a Sorting Adaptor for MyD88” (PLoS ONE, 2012):

T1: GST-IL-18Rβ-TIR (amino acid residues 407-599) (UniProt O95256 407-599)
T1 construct: IL-18Rβ (formerly IL-1AcPL), cytosolic TIR domain, residues 407-599; also called IL-18Rβ TIR domain; IL-1AcPL TIR; source: purified as GST fusion protein (pGEX vector), by methods previously described
T1 sequence (looked up): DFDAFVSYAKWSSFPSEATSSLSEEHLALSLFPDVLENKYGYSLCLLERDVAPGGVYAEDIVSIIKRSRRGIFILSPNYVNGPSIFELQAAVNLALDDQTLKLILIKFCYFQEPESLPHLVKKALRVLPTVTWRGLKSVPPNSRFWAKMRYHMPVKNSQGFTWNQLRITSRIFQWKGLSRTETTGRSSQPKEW

B1: TRAM-TIR (amino acid residues 66-235) (domain or fragment, human, UniProt Q86XR7 66-235, looked up)
chain: EEMFEEEAEEEVFLKFVILHAEDDTDEALRVQNLLQDDFGIKPGIIFAEMPCGRQHLQNLDDAVNGSAWTILLLTENFLRDTWCNFQFYTSLMNSVNRQHKYNSVIPMRPLNNPLPRERTPFALQTINALEEESRGFPTQVERIFQESVYKTQQTIWKETRNMVQRQFIA
notes: TRAM (TICAM-2), human, TIR domain, residues 66-235; also called TIR domain of human TRAM; TRAM TIR domain; source: purified; subcloned into a pGEX vector, obtained by a similar procedure as previously described for the MyD88-TIR

target: T1, GST-IL-18Rβ-TIR (amino acid residues …); test: pull-down; GST fusion proteins held on Glutathione Sepharose 4B, three hours at 4°C; four washes with 20 mM potassium phosphate (pH 6.0), 100 mM KCl, 0.1 mM EDTA, 10 mM DTT, 0.5% Triton X100; SDS-PAGE with Coomassie staining; in triplicate; settings: both partners purified

| binding result | Binder |
| --- | --- |
| binds | B1 |

target: B1; test: as above; settings: both partners purified

| binding result | Binder |
| --- | --- |
| binds | GST-IL-18Rα-TIR (amino acid residues 374-541) (domain or fragment, UniProt Q13478 374-541, looked up, IL-18Rα (formerly IL-1Rrp), cytosolic TIR domain, residues 374-541; also called IL-18Rα TIR domain; IL-1Rrp TIR; source: purified as GST fusion protein (pGEX vector), by methods previously described) TYDAFVSYLKECRPENGEEHTFAVEILPRVLEKHFGYKLCIFERDVVPGGAVVDEIHSLIEKSRRLIIVLSKSYMSNEVRYELESGLHEALVERKIKIILIEFTPVTDFTFLPQSLKLLKSHRVLKWKADKSLSYNSRFWKNLLYLMPAKTVKPGRDEPEVLPVLSES |
| binds | GST-MyD88-TIR (wild type, amino acid residues 148-296) (domain or fragment, UniProt Q99836 148-296, looked up, MyD88, TIR domain, amino acid residues 148-296; also called wild-type MyD88-TIR; MyD88 TIR domain; source: purified as GST fusion protein (pGEX vector), by methods previously described) TTLDDPLGHMPERFDAFICYCPSDIQFVQEMIRQLEQTNYRLKLCVSDRDVLPGTCVWSIASELIEKRCRRMVVVVSDDYLQSKECDFQTKFALSLSPGAHQKRLIPIKYKAMKKEFPSILRFITVCDYTNPCTKSWFWTRLAKALSLP |
| binds | GST-MyD88-TIR R217A (148-296) (domain or fragment, UniProt Q99836 148-296, looked up, MyD88, TIR domain, residues 148-296, with R217A; also called Site I mutant R217A; source: purified as GST fusion protein (pGEX vector), by methods previously described) TTLDDPLGHMPERFDAFICYCPSDIQFVQEMIRQLEQTNYRLKLCVSDRDVLPGTCVWSIASELIEKRCARMVVVVSDDYLQSKECDFQTKFALSLSPGAHQKRLIPIKYKAMKKEFPSILRFITVCDYTNPCTKSWFWTRLAKALSLP |
| binds | GST-MyD88-TIR R196A (148-296) (domain or fragment, UniProt Q99836 148-296, looked up, MyD88, TIR domain, residues 148-296, with R196A; also called Site II mutant R196A; source: purified as GST fusion protein (pGEX vector), by methods previously described) TTLDDPLGHMPERFDAFICYCPSDIQFVQEMIRQLEQTNYRLKLCVSDADVLPGTCVWSIASELIEKRCRRMVVVVSDDYLQSKECDFQTKFALSLSPGAHQKRLIPIKYKAMKKEFPSILRFITVCDYTNPCTKSWFWTRLAKALSLP |
| binds | GST-MyD88-TIR R288A (148-296) (domain or fragment, UniProt Q99836 148-296, looked up, MyD88, TIR domain, residues 148-296, with R288A; also called Site III mutant R288A; source: purified as GST fusion protein (pGEX vector), by methods previously described) TTLDDPLGHMPERFDAFICYCPSDIQFVQEMIRQLEQTNYRLKLCVSDRDVLPGTCVWSIASELIEKRCRRMVVVVSDDYLQSKECDFQTKFALSLSPGAHQKRLIPIKYKAMKKEFPSILRFITVCDYTNPCTKSWFWTALAKALSLP |
